# Source: the RNAGym collection of RNA variant scans (doi:10.1073/pnas.2313332121)
# B1: TPR t1 (parent)
# chain: GACCAAUCUGCCCUCAGAGCUCGAGAACAUCUUCGGAUGCAGAGGAGGCAGGCUUCGGUGGCGCGAUAGCGCCAACGUCCUCAACCUCCAAUGCAUCCCACCACAUGAUGAUGCCUGAAGAGCCUUGGUUUUUUG
# Variants of: B1
# Test: polymerase ribozyme fitness, log enrichment relative to wild type (log ratio); higher = more active; in vitro selection for triplet polymerase activity
# Method in brief: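 One round of in vitro selection, in triplicate, was applied to PCR-built, transcribed mutant libraries of each subunit of a heterodimeric triplet polymerase ribozyme. The steps were annealing with a biotinylated primer, partner subunit and triplets, incubation frozen at −7 °C, gel excision of extended constructs, streptavidin-bead capture and RT-PCR. Fitness is the logarithm, base 2, of genotype enrichment over wild-type enrichment from inverse-variance-weighted replicate averages of Illumina-sequenced inputs and outputs, keeping genotypes with ≥10 input reads and ≥1 read per output.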
row,Variant,polymerase ribozyme fitness (log ratio)
1,C20A G36A,-4.23
2,C4G U9G U116C G128U U131C,-0.342
3,U33A C89A G117U,-5.96
4,A37U A41G,-0.165
5,G47C U106A,-1.41
6,C20A G39U,-4.11
7,C15U A74G A105G,-4.44
8,C56A G60U G113A,-1.2
9,U96A C123A,-1.45
10,A41U C49G A83C U133G,-1.44
11,G48U G110U U125A,-2.52
12,C13A G17U,-4.98
13,C13U C22U C82A C94A A121U U130A,-3.54
14,U33G G71A G117U,-8.01
15,A6G U59C,-0.609
16,A6G C12U A50U U54G A100C,-6.08
17,G61C C80U,-5.08
18,G48U U59C,0.407
19,G17U C34A G63A C79U C115A,-3.37
20,C22G C82A A83U G93C,-4.04
21,C4A U7G A91U,-4.91
22,C62U C99U C101U,-3.02
23,G44A G93A,-1.2
24,G39U C104A G120A,-1.22

row,Variant,polymerase ribozyme fitness (log ratio)
1,A43U A66C G71U,-5.02
2,C13G C123G,1.77
3,C80A C86U,-3.32
4,C11A C13U G63U,-2.94
5,A16U U55C,-2.11
6,A18G C56G A83U G110C,-4.59
7,C64U A84U,-0.154
8,C53A G60A C85G,-1.1
9,C20U G61C,-2.87
10,G52A C85G C124A,0.15
11,C72U C79A,-3.07
12,G61U C80A C101A,-4.47
13,U33A A37U U55C G63U A100C,-7.2
14,G93U A108G G120U,-3.31
15,C13G C15U C40U G117U G120A,-2.61
16,A27G C102U,-3.53
17,G51C G60A U112G G117C,-7.03
18,A6U C11U G47C C85U C114A,-4.43
19,C4U A5U U59G C64U,-3.75
20,G48U U112C,0.623
21,C70U A111C,-0.279
22,C40A A91G C99U A111U G122A,-6.79
23,C12A G93A,-1.39
24,C20U G61A C98A,-5.48

row,Variant,polymerase ribozyme fitness (log ratio)
1,C3U G69C U87G C124A,0.486
2,C49G U112A,0.92
3,G35A U55G,-4.9
4,G60U A111G,0.488
5,C12U C31U,-4.34
6,C62G G117A U131G,-4.48
7,U21A A43U C72U U129A,-3.56
8,G60U C80U U106G U129G,-6.15
9,C64G C123G,-5.33
10,C88U U129A,-0.777
11,G63A A118U,0.468
12,C28A U38G G60A,-5.64
13,G36A U106A,-0.912
14,C3U U7G C20U U21G G71U G110U C124G,-5.25
15,C13A C72A,-2.25
16,U9A C73A A95G C104A G110U,-3.62
17,A41G C49U G110A G122A G127U,-5.4
18,C64U G122A,-0.796
19,G63A C101U,-0.216
20,C12A G63U,-2.42
21,G71U A111U,-3.91
22,A6C U38A C115A,-1.35
23,G61A C101G,-1.59
24,C13U C56A C86A,-0.732

row,Variant,polymerase ribozyme fitness (log ratio)
1,G58U C94U C101G,-1.75
2,C12G C15G G51U C73A G117U,-2.07
3,C4A A16C C72A C101A C124U U130A,-4.51
4,C12A C102U,-2.56
5,A29U,-1.67
6,C4U C49U U55G U96A,-2.11
7,G17C U106A,-4.68
8,C8U C88G,-0.442
9,G44U C53G G71U C73A C82U U129G,-3.9
10,G69A G77C,-4.57
11,G45U A50U G60A C62U,-1.75
12,G71U C101U C115A,-0.712
13,G51U U112A U133C,-3.27
14,U21C A37G A46C C64G A100C C115U G117C,-7.24
15,A43C G48A,-2.56
16,C64U C89U,-0.57
17,C11A C13U C53A,-1.65
18,C12U G113A,0.642
19,G39U U112C G127A,-0.476
20,U38G G69U C98A,-4.75
21,G44U G61A C98A G117U,-7.12
22,C70A U131A,-1.34
23,C11A G61A,-1.4
24,G19U A37C,-3.64

row,Variant,polymerase ribozyme fitness (log ratio)
1,C31G G48U C72U C86G A100C G120C,-7.02
2,G58A U96A,-0.747
3,C11G C28G C86A C123U,-1.94
4,C72U U78C A83U A90G A121G,1.89
5,C34G G36A C49A C86U C124A,-6.09
6,C22G G36A C101U,-5.03
7,A103C G120A,-3.52
8,C72G U81A,-2.98
9,A18C G61C C89G U116C C124A,-2.98
10,U9C U81C C98A,-5.87
11,C8G C34G,-6.45
12,G48U A66U C72A U96G U112C,-1.61
13,C73U A108U,-5.75
14,A18C G113C,-3.55
15,C11A G60A C101A C124G,0.624
16,A68G C85A,-4.94
17,A74C C124U,1.08
18,U87A A105G,-2
19,C8U C49G U106A G110A,-1.48
20,U129G U133A,-2
21,U7G G45C G135U,-0.606
22,A6U G61U G117A,-0.538
23,C53G U87G,-0.632
24,C72A U81C,-0.634

row,Variant,polymerase ribozyme fitness (log ratio)
1,U116C G117C,-2.2
2,C8A U92C,-0.565
3,C8A C22U U129G,-4.85
4,C15U G45C G117A,-1.11
5,G61U U130C,0.445
6,C70A G77C,-2.99
7,C12U C20G G63U U106C,-6.59
8,G25U C94U C101U G113A C124A,-7.17
9,A50U C62G C86G A105U A108U C124G,-7.62
10,C31U C104U,-4.18
11,G117C A118G,-3.04
12,A2U G36C C82U G113U G135U,-5.19
13,C72G G77C A95G C101G,-2.74
14,A27C U55C C104U,-3.54
15,G47U A111G G120A,-2.18
16,G48A A84C,-0.643
17,U67C C114U,-6.64
18,C70G U112G,-2.86
19,G36C G61C C86U C114U,-6.11
20,C13A U33G C124G,-4.34
21,G110U G120C G127A G128U,-4.38
22,G19U A37U U55G,-4.52
23,G42A G45C C49G U96A,-3.8
24,G77C C124U,1.82

row,Variant,polymerase ribozyme fitness (log ratio)
1,C72G U87C G93A C104G C123G,-6.53
2,C28U G71A,-2.58
3,C64U C115U U130A,-1.66
4,C34U C88G C123G,-3.83
5,C12U U78C,-0.312
6,A6G G42U C73A C85U U106G G110U,-5.96
7,A27U G69U C101A,-2.96
8,C8A C94A,-0.131
9,G60C U96A,-1.77
10,C13U U14C A50U G120A,-0.904
11,A24G,-1.19
12,C94G U106A G135U,-1.54
13,G19U G44A C70A C72U,-6.42
14,A27G U38A C73U A83C,-3.53
15,C56U G120U,0.743
16,G17U A118U,-3.56
17,C72G C88U C123A,0.243
18,G42U C70G,-4.95
19,G19U A75G,-3.56
20,G44A C72G C97U G113U G117A,-6.18
21,G39U U78G A83C A91G U129A,-3.94
22,A18U C114A U125A U133G,-1.87
23,U54A C70G A118G U133A G135U,-2.84
